According to the supplement of paper PMC6757056:
± gives the standard deviation of the averaged measurements.

B1: library; a variant is named by its letters at N, in order (parent)
chain: GCUGUCACCGGUGUAUUACCCUAGUGGUCGACCGGUCUGAUGAGUCUNNNNNNAGACGAAACAGC

Assays:
[1] = variants of: B1; test: normalized RNA/DNA level with ligand (relative to sTRSVctl = 100) (log10 (% of sTRSVctl)); ligand: hypoxanthine (xanthine aptamer); higher = less ribozyme self-cleavage, higher mRNA level; settings: ligand concentration (+) RNA-Seq: 5 mM, HEK293T, reporter: mCherry (pCS4076), ligand present: yes
In short: (§1)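 For each 6-well well, 4 µg of library plasmid encoding mCherry-linked ribozyme switches, or eGFP-linked ones in some ligand experiments, was transfected into HEK293T. Any ligand was added 1 h before transfection, and RNA was extracted with EDTA 72 h after it, then reverse-transcribed, amplified, barcoded and sequenced. RNA level was obtained by dividing RNA reads by DNA reads, normalizing to a spiked-in non-cleaving sequence or to the top sequences, then scaling and log-transforming. The top set was 25 sequences, scaling was ×100 with log10, and ≥100 DNA reads were required.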

[2] = variants of: B1; test: normalized RNA/DNA level without ligand (relative to sTRSVctl = 100) (log10 (% of sTRSVctl)); ligand: hypoxanthine (xanthine aptamer); higher = less ribozyme self-cleavage, higher mRNA level; settings: HEK293T, reporter: mCherry (pCS4076), ligand present: no
In short: as §1

Row | Variant | normalized RNA/DNA level with ligand (log10) [1] | normalized RNA/DNA level without ligand (log10) [2]
1 | GCUGUCACCGGUGUAUUACCCUAGUGGUCGACCGGUCUGAUGAGUCUCAUGUUAGACGAAACAGC | 1.94 ± 0.026 | 1.879 ± 0.0072
2 | GCUGUCACCGGUGUAUUACCCUAGUGGUCGACCGGUCUGAUGAGUCUCAUGUGAGACGAAACAGC | 1.93 ± 0.02 | 1.882 ± 0.012
3 | GCUGUCACCGGUGUAUUACCCUAGUGGUCGACCGGUCUGAUGAGUCUAAUUCUAGACGAAACAGC | 1.9751 ± 0.00092 | 1.855 ± 0.0071
4 | GCUGUCACCGGUGUAUUACCCUAGUGGUCGACCGGUCUGAUGAGUCUAAUUCCAGACGAAACAGC | 1.98 ± 0.039 | 1.9 ± 0.027
5 | GCUGUCACCGGUGUAUUACCCUAGUGGUCGACCGGUCUGAUGAGUCUAAUUAUAGACGAAACAGC | 1.92 ± 0.026 | 1.82 ± 0.022
6 | GCUGUCACCGGUGUAUUACCCUAGUGGUCGACCGGUCUGAUGAGUCUAAUGUCAGACGAAACAGC | 1.98 ± 0.064 | 1.921 ± 0.0048
7 | GCUGUCACCGGUGUAUUACCCUAGUGGUCGACCGGUCUGAUGAGUCUCAUUCUAGACGAAACAGC | 1.91 ± 0.021 | 1.86 ± 0.034
8 | GCUGUCACCGGUGUAUUACCCUAGUGGUCGACCGGUCUGAUGAGUCUCAUUCCAGACGAAACAGC | 1.98 ± 0.055 | 1.9 ± 0.048
9 | GCUGUCACCGGUGUAUUACCCUAGUGGUCGACCGGUCUGAUGAGUCUCAUUCAAGACGAAACAGC | 1.92 ± 0.04 | 1.78 ± 0.029
10 | GCUGUCACCGGUGUAUUACCCUAGUGGUCGACCGGUCUGAUGAGUCUCAUUCGAGACGAAACAGC | 1.943 ± 0.012 | 1.89 ± 0.07
11 | GCUGUCACCGGUGUAUUACCCUAGUGGUCGACCGGUCUGAUGAGUCUUAUUAGAGACGAAACAGC | 1.873 ± 0.0072 | 1.6759 ± 0.00016
12 | GCUGUCACCGGUGUAUUACCCUAGUGGUCGACCGGUCUGAUGAGUCUCAUUACAGACGAAACAGC | 1.9 ± 0.046 | 1.82 ± 0.0041
13 | GCUGUCACCGGUGUAUUACCCUAGUGGUCGACCGGUCUGAUGAGUCUCAUUAGAGACGAAACAGC | 1.941 ± 0.019 | 1.73 ± 0.054
14 | GCUGUCACCGGUGUAUUACCCUAGUGGUCGACCGGUCUGAUGAGUCUUAUUGAAGACGAAACAGC | 1.901 ± 0.016 | 1.74 ± 0.021
15 | GCUGUCACCGGUGUAUUACCCUAGUGGUCGACCGGUCUGAUGAGUCUUAUUCUAGACGAAACAGC | 1.96 ± 0.079 | 1.88 ± 0.035
16 | GCUGUCACCGGUGUAUUACCCUAGUGGUCGACCGGUCUGAUGAGUCUUAUUCGAGACGAAACAGC | 1.929 ± 0.0088 | 1.74 ± 0.072
17 | GCUGUCACCGGUGUAUUACCCUAGUGGUCGACCGGUCUGAUGAGUCUUAUUCCAGACGAAACAGC | 1.95 ± 0.023 | 1.852 ± 0.012
18 | GCUGUCACCGGUGUAUUACCCUAGUGGUCGACCGGUCUGAUGAGUCUGAUUCCAGACGAAACAGC | 1.976 ± 0.0082 | 1.92 ± 0.034
19 | GCUGUCACCGGUGUAUUACCCUAGUGGUCGACCGGUCUGAUGAGUCUGAUUCUAGACGAAACAGC | 1.97 ± 0.065 | 1.92 ± 0.042
20 | GCUGUCACCGGUGUAUUACCCUAGUGGUCGACCGGUCUGAUGAGUCUGAUUCAAGACGAAACAGC | 1.961 ± 0.017 | 1.86 ± 0.041
21 | GCUGUCACCGGUGUAUUACCCUAGUGGUCGACCGGUCUGAUGAGUCUUAUGUUAGACGAAACAGC | 1.94 ± 0.06 | 1.85 ± 0.049
